In patent US20230340128A1 (Xencor, published 2023):

Experiments:
human mesothelin (MSLN) [1] = target: T1, human mesothelin (MSLN) (human, UniProt Q13421 296-580, limits assumed); experiment: BLI (Octet), multiple concentrations, bsAb in 1+1 Fab-scFv-Fc format
T1 construct: Antigen of the Octet KD values

[2] = target: MSLN on OVCAR8 cells (~90K MSLN antigens/cell) (UniProt Q13421 296-598); experiment: binding to OVCAR8 cells, MFI APC against mAb concentration
human mesothelin (MSLN) [3] = target: T1, human mesothelin (MSLN); experiment: KD quoted in the FIG. 25 legend; Octet (BLI) per FIGS. 20-21
human mesothelin (MSLN) [4] = target: T1, human mesothelin (MSLN); experiment: label in the legend box: nominal affinity of the MSLN binding domain (paragraph 422 calls such label values KD); method not stated on the sheet
[5] = target: T2, MSLN on OVCAR8 cells (~90K MSLN antigens/cell) (UniProt Q13421 296-598); experiment: flow cytometry on OVCAR8 cells, 1 h at 4 C, anti-human-Fc A647 secondary
T2 construct: whole, on cells; Endogenous expression on a cancer cell line
Method: In this experiment, 50,000 OVCAR8 cells (˜90K MSLN antigens/cell) were seeded per well in a plate. Anti-human-Fc secondary (A647) was added for 30 min at 4° C., and binding was assessed via FACs. FIG. 39C depicts that the CD28×MSLN bsAbs in neither 1+1-Fab-scFv format nor the 2+1 mAb-scFv format antibodies show any significant off target binding. In this experiment, 50,000 SKOV3 cells (˜9K MSLN antigens/cell) were seeded per well in a plate. Anti-human-Fc secondary (A647) was added for 30 min at 4° C., and binding was assessed via FACs.
In order to assess the binding of MSLN×CD28 bsAbs in different formats, an experiment was conducted in which 50,000 OVCAR8 cells (˜90K MSLN antigens/cell) were seeded per well in a plate. Anti-human-Fc secondary (A647) was added for 30 min at 4° C., and binding was assessed via FACs.

human CD28 = target: T3, human CD28 (human, UniProt P10747 19-152, limits assumed); experiment: label in the legend box: nominal affinity of the CD28 binding domain (paragraph 422 calls such label values KD); method not stated on the sheet
T3 construct: also called Cluster of Differentiation 28; Tp44

Binder | Kd (human mesothelin (MSLN) [4]) | EC50 (read off the curve) [5] | Kd (human CD28) | further results
XENP32937 (bispecific antibody) chain 1: QVQLVQSGAEVKKPGASVKVSCKASGYTFTSYWMHWVRQAPGQGLEWMGMIHPNSDNTIYYQKFQGRVTMTVDKSISTAYMELSRLRSDDTAVYYCAIIITPVVPKFDYWGQGTLVTVSSASTKGPSVFPLAPSSKSTSGGTAALGCLVKDYFPEPVTVSWNSGALTSGVHTFPAVLQSSGLYSLSSVVTVPSSSLGTQTYICNVNHKPSDTKVDKKVEPKSCDKTHTCPPCPAPPVAGPSVFLFPPKPKDTLMISRTPEVTCVVVDVKHEDPEVKFNWYVDGVEVHNAKTKPREEEYNSTYRVVSVLTVLHQDWLNGKEYKCKVSNKALPAPIEKTISKAKGQPREPQVYTLPPSREEMTKNQVSLTCDVSGFYPSDIAVEWESDGQPENNYKTTPPVLDSDGSFFLYSKLTVDKSRWEQGDVFSCSVMHEALHNHYTQKSLSLSPGK chain 2: not shown chain 3: DIVMTQSPDSLAVSLGERATINCKASHDVGTSVAWYQQKPGQSPKLLIYWASTRHTGVPDRFTGSGSGTDFTLTISSLQAEDVAVYFCQQYYSYPLTFGAGTKLEIKRTVAAPSVFIFPPSDEQLKSGTASVVCLLNNFYPREAKVQWKVDNALQSGNSQESVTEQDSKDSTYSLSSTLTLSKADYEKHKVYACEVTHQGLSSPVTKSFNRGEC |  |  |  | Kd (human mesothelin (MSLN) [1]): 10.2 nM; koff (human mesothelin (MSLN) [1]): 0.00822 s⁻¹; kon (human mesothelin (MSLN) [1]): 803000 M⁻¹ s⁻¹
XENP31717 (bispecific antibody) chain 1: QVQLVQSGAEVKKPGASVKVSCKASGYTFTSYWMHWVRQAPGQGLEWMGMIHPNSDNTIYYEKFQGRVTMTVDKSISTAYMELSRLRSDDTAVYYCAIIITPVVPKFDYWGQGTLVTVSSASTKGPSVFPLAPSSKSTSGGTAALGCLVKDYFPEPVTVSWNSGALTSGVHTFPAVLQSSGLYSLSSVVTVPSSSLGTQTYICNVNHKPSDTKVDKKVEPKSCDKTHTCPPCPAPPVAGPSVFLFPPKPKDTLMISRTPEVTCVVVDVKHEDPEVKFNWYVDGVEVHNAKTKPREEEYNSTYRVVSVLTVLHQDWLNGKEYKCKVSNKALPAPIEKTISKAKGQPREPQVYTLPPSREEMTKNQVSLTCDVSGFYPSDIAVEWESDGQPENNYKTTPPVLDSDGSFFLYSKLTVDKSRWEQGDVFSCSVMHEALHNHYTQKSLSLSPGK chain 2: QVQLVQSGAEVKKPGASVKVSCKASGYTFTSYWMHWVRQAPGQGLEWMGMIHPNSDNTIYYEKFQGRVTMTVDKSISTAYMELSRLRSDDTAVYYCAIIITPVVPKFDYWGQGTLVTVSSASTKGPSVFPLAPSSKSTSGGTAALGCLVKDYFPEPVTVSWNSGALTSGVHTFPAVLQSSGLYSLSSVVTVPSSSLGTQTYICNVNHKPSNTKVDKKVEPKSCGGGGSGGGGSQAVVTQEPSLTVSPGGTVTLTCGSSTGAVTTSNYANWVQQKPGKSPRGLIGGTNKRAPGVPARFSGSLLGGKAALTISGAQPEDEADYYCALWYSNHWVFGGGTKLTVLGKPGSGKPGSGKPGSGKPGSEVQLVESGGGLVQPGGSLRLSCAASGFTFSTYAMNWVRQAPGKGLEWVGRIRSKANNYATYYADSVKGRFTISRDDSKNTLYLQMNSLRAEDTAVYYCVRHGNFGDSYVSWFAYWGQGTLVTVSSGGGGSGGGGSKTHTCPPCPAPPVAGPSVFLFPPKPKDTLMISRTPEVTCVVVDVKHEDPEVKFNWYVDGVEVHNAKTKPREEQYNSTYRVVSVLTVLHQDWLNGKEYKCKVSNKALPAPIEKTISKAKGQPREPQVYTLPPSREQMTKNQVKLTCLVKGFYPSDIAVEWESNGQPENNYKTTPPVLDSDGSFFLYSKLTVDKSRWQQGNVFSCSVMHEALHNHYTQKSLSLSPGK chain 3: DIVMTQSPDSLAVSLGERATINCKASHDVGTSVAWYQQKPGQSPKLLIYWASTRHTGVPDRFTGSGSGTDFTLTISSLQAEDVAVYFCQQYSSYPLTFGAGTKLEIKRTVAAPSVFIFPPSDEQLKSGTASVVCLLNNFYPREAKVQWKVDNALQSGNSQESVTEQDSKDSTYSLSSTLTLSKADYEKHKVYACEVTHQGLSSPVTKSFNRGEC |  |  |  | EC50 (read off the curve) [2]: ~40 ng/mL; Kd (human mesothelin (MSLN) [3]): 0.28 nM
XENP44469 (bispecific antibody, also called XENP44469 MSLN (0.3 nM) x CD28 (180 nM) 2+1 Fab2-scFv-Fc) heavy 1: QVQLVQSGAEVKKPGASVKVSCKASGYTFTSYWMHWVRQAPGQGLEWMGMIHPNSDNTIYYEKFQGRVTMTVDKSISTAYMELSRLRSDDTAVYYCAIIITPVVPKFDYWGQGTLVTVSSASTKGPSVFPLAPSSKSTSGGTAALGCLVKDYFPEPVTVSWNSGALTSGVHTFPAVLQSSGLYSLSSVVTVPSSSLGTQTYICNVNHKPSDTKVDKKVEPKSCDKTHTCPPCPAPPVAGPSVFLFPPKPKDTLMISRTPEVTCVVVDVKHEDPEVKFNWYVDGVEVHNAKTKPREEEYNSTYRVVSVLTVLHQDWLNGKEYKCKVSNKALPAPIEKTISKAKGQPREPQVYTLPPSREEMTKNQVSLTCDVSGFYPSDIAVEWESDGQPENNYKTTPPVLDSDGSFFLYSKLTVDKSRWEQGDVFSCSVLHEALHSHYTQKSLSLSPGK heavy 2: not shown light 1: DIVMTQSPDSLAVSLGERATINCKASHDVGTSVAWYQQKPGQSPKLLIYWASTRHTGVPDRFTGSGSGTDFTLTISSLQAEDVAVYFCQQYSSYPLTFGAGTKLEIKRTVAAPSVFIFPPSDEQLKSGTASVVCLLNNFYPREAKVQWKVDNALQSGNSQESVTEQDSKDSTYSLSSTLTLSKADYEKHKVYACEVTHQGLSSPVTKSFNRGEC light 2: DIVMTQSPDSLAVSLGERATINCKASHDVGTSVAWYQQKPGQSPKLLIYWASTRHTGVPDRFTGSGSGTDFTLTISSLQAEDVAVYFCQQYSSYPLTFGAGTKLEIKRTVAAPSVFIFPPSDEQLKSGTASVVCLLNNFYPREAKVQWKVDNALQSGNSQESVTEQDSKDSTYSLSSTLTLSKADYEKHKVYACEVTHQGLSSPVTKSFNRGEC | 0.3 nM | ~4 ng/mL | 180 nM | 
XENP44475 (bispecific antibody, also called XENP44475 MSLN (0.3 nM) x CD28 (180 nM) 2+1 Fab2-Fc x scFv-Fc) heavy: QVQLVQSGAEVKKPGASVKVSCKASGYTFTSYWMHWVRQAPGQGLEWMGMIHPNSDNTIYYEKFQGRVTMTVDKSISTAYMELSRLRSDDTAVYYCAIIITPVVPKFDYWGQGTLVTVSSASTKGPSVFPLAPSSKSTSGGTAALGCLVKDYFPEPVTVSWNSGALTSGVHTFPAVLQSSGLYSLSSVVTVPSSSLGTQTYICNVNHKPSDTKVDKKVEPKSCGGGGSGGGGSQVQLVQSGAEVKKPGASVKVSCKASGYTFTSYWMHWVRQAPGQGLEWMGMIHPNSDNTIYYEKFQGRVTMTVDKSISTAYMELSRLRSDDTAVYYCAIIITPVVPKFDYWGQGTLVTVSSASTKGPSVFPLAPSSKSTSGGTAALGCLVKDYFPEPVTVSWNSGALTSGVHTFPAVLQSSGLYSLSSVVTVPSSSLGTQTYICNVNHKPSDTKVDKKVEPKSCDKTHTCPPCPAPPVAGPSVFLFPPKPKDTLMISRTPEVTCVVVDVKHEDPEVKFNWYVDGVEVHNAKTKPREEEYNSTYRVVSVLTVLHQDWLNGKEYKCKVSNKALPAPIEKTISKAKGQPREPQVYTLPPSREEMTKNQVSLTCDVSGFYPSDIAVEWESDGQPENNYKTTPPVLDSDGSFFLYSKLTVDKSRWEQGDVFSCSVLHEALHSHYTQKSLSLSPGK scFv-Fc: not shown light 1: DIVMTQSPDSLAVSLGERATINCKASHDVGTSVAWYQQKPGQSPKLLIYWASTRHTGVPDRFTGSGSGTDFTLTISSLQAEDVAVYFCQQYSSYPLTFGAGTKLEIKRTVAAPSVFIFPPSDEQLKSGTASVVCLLNNFYPREAKVQWKVDNALQSGNSQESVTEQDSKDSTYSLSSTLTLSKADYEKHKVYACEVTHQGLSSPVTKSFNRGEC light 2: DIVMTQSPDSLAVSLGERATINCKASHDVGTSVAWYQQKPGQSPKLLIYWASTRHTGVPDRFTGSGSGTDFTLTISSLQAEDVAVYFCQQYSSYPLTFGAGTKLEIKRTVAAPSVFIFPPSDEQLKSGTASVVCLLNNFYPREAKVQWKVDNALQSGNSQESVTEQDSKDSTYSLSSTLTLSKADYEKHKVYACEVTHQGLSSPVTKSFNRGEC | 0.3 nM | ~5 ng/mL | 180 nM | 
